Assays:
human HER2 [1] = molecular target: T1, human HER2 (human, UniProt P04626 23-652, limits assumed); assay: SPR
T1 construct: This is HER2 as used in the surface plasmon resonance experiments; also called ErbB2; Human Epidermal Growth Factor Receptor 2

[2] = molecular target: T2, extracellular domain of HER3 (UniProt P21860 20-643); assay: surface plasmon resonance
T2 construct: extracellular domain; also called ErbB3

[3] = molecular target: T3, extracellular domain of EGFR (UniProt P00533 25-645); assay: surface plasmon resonance
T3 construct: extracellular domain; also called ErbB1; HER1

HER2 on BT474 cells [4] = molecular target: T4, HER2 on BT474 cells (human, UniProt P04626 23-1255); assay: cell-based or functional assay
HER2 on BT474 cells [5] = molecular target: T4, HER2 on BT474 cells; assay: cell-based or functional assay; remark: listed apart in the source
human serum albumin [6] = molecular target: T5, human serum albumin (human, UniProt P02768 25-609); assay: SPR; Protein #21 at 100 nM
T5 construct: also called HSA

[7] = molecular target: cynomolgus monkey serum albumin (cynomolgus monkey, UniProt A2V9Z4 25-608); assay: ProteOn SPR, PBS pH 7.4
mouse serum albumin = mouse serum albumin (mouse, UniProt P07724 25-608); assay: ProteOn SPR, PBS pH 7.4
human serum albumin [8] = molecular target: T5, human serum albumin; assay: ProteOn SPR, PBS pH 7.4
human HER2 [9] = molecular target: T1, human HER2; assay: SPR, global fit over several concentrations; Protein #23-His
Procedure: (§1) Its affinity to HER2 was assessed by surface plasmon resonance as described in WO2014/083208.

human HER2 [10] = molecular target: T1, human HER2; assay: SPR, global fit over several concentrations; Protein #21-His
Procedure: as §1

Chain of cynomolgus monkey serum albumin (A2V9Z4 25-608 limits assumed): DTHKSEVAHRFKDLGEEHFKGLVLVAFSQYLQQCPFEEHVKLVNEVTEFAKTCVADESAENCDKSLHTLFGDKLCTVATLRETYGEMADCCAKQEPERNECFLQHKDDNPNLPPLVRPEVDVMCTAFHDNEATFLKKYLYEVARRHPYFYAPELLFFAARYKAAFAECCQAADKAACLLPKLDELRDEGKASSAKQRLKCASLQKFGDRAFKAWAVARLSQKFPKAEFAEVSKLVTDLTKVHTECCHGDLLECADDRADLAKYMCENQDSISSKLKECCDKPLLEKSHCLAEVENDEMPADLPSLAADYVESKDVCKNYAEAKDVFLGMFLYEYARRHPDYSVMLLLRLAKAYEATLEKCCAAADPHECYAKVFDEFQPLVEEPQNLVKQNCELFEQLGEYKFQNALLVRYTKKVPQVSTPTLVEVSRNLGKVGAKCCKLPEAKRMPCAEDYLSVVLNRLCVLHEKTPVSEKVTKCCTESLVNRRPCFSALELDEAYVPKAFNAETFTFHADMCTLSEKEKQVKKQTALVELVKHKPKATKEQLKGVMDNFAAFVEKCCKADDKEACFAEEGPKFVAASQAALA
Chain of mouse serum albumin (P07724 25-608 limits assumed): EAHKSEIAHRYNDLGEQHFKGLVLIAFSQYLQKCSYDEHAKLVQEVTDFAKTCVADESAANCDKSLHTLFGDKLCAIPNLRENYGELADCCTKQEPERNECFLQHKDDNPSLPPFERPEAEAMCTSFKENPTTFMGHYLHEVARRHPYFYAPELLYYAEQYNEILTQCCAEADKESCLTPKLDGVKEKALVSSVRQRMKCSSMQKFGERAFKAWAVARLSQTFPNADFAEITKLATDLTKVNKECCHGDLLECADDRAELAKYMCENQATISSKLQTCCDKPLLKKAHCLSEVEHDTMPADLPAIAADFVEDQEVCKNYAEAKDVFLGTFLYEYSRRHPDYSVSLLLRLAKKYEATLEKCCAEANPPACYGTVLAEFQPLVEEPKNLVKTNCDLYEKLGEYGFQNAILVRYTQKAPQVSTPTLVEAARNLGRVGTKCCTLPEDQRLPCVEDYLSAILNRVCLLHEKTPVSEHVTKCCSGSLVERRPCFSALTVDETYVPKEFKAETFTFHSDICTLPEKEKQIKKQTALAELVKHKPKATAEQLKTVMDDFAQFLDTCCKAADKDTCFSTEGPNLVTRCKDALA

B1: Protein #16-His (designed binder)
chain: MRGSHHHHHHGSDLGIKLLFAAAKGQDDEVRELLKAGADVNAKDFQGVTPLHIAAQSGHLEIVEVLLKAGADVNAKDVTGDTPLHLAAQHGHLEIVEVLLKAGADVNAQDERGWTPADLAADWGHEDIAEVLQKAA
Kd (human HER2 [1]): 0.009 nM

B2: Protein #21 (designed binder)
chain: GSDLGKKLLEAARAGQDDEVRELLKAGADVNAKDYFSHTPLHLAARNGHLKIVEVLLKAGADVNAKDFAGKTPLHLAANEGHLEIVEVLLKAGADVNAQDIFGKTPADIAADAGHEDIAEVLQKAAGSPTPTPTTPTPTPTTPTPTPTGSDLGIKLLFAAAKGQDDEVRELLKAGADVNAKDFQGVTPLHIAAQSGHLEIVEVLLKAGADVNAKDVTGDTPLHLAAQHGHLEIVEVLLKAGADVNAQDERGWTPADLAADWGHEDIAEVLQKAAGSPTPTPTTPTPTPTTPTPTPTGSDLGKKLLEAARAGQDDEVRELLKAGADVNAKDEYGLTPLYLATAHGHLEIVEVLLKAGADVNAVDAIGFTPLHLAAFIGHLEIAEVLLKAGADVNAQDKFGKTPADIAAGAGNEDIAEVLQKAAGSPTPTPTTPTPTPTTPTPTPTGSDLGKKLLEAARAGQDDEVRELLKAGADVNAKDYFSHTPLHLAARNGHLKIVEVLLKAGADVNAKDFAGKTPLHLAANEGHLEIVEVLLKAGADVNAQDIFGKTPADIAADAGHEDIAEVLQKAA
notes: Untagged
binding result [2]: no binding
binding result [3]: no binding
phosphorylation AKT S124, fold change to PBS (mass spectrometry) (HER2 on BT474 cells [4]): 0.99 fold change to PBS
phosphorylation AKT S129, fold change to PBS (mass spectrometry) (HER2 on BT474 cells [4]): 0.93 fold change to PBS
phosphorylation RAF S642, fold change to PBS (mass spectrometry) (HER2 on BT474 cells [4]): 0.81 fold change to PBS
phosphorylation RAF T631/T638/T640/T641/S642, fold change to PBS (mass spectrometry) (HER2 on BT474 cells [4]): 0.48 fold change to PBS
phosphorylation RPS6KB1/S6Kinase S441/T444/S447, fold change to PBS (mass spectrometry) (HER2 on BT474 cells [4]): 0.63 fold change to PBS
phosphorylation RPS6KB1/S6Kinase T444/S447, fold change to PBS (mass spectrometry) (HER2 on BT474 cells [4]): 0.92 fold change to PBS
phosphorylation mTOR S2448/S2454, fold change to PBS (mass spectrometry) (HER2 on BT474 cells [4]): 0.79 fold change to PBS
EC50, induction of apoptosis in BT474 cells (Caspase 3/7 activation) (HER2 on BT474 cells [5]): 2.4 nM
Kd (human serum albumin [6]): 21 nM

B3: Protein #14-His (designed binder)
chain: MRGSHHHHHHGSDLGKKLLEAARAGQDDEVRELLKAGADVNAKDYFSHTPLHLAARNGHLKIVEVLLKAGADVNAKDFAGKTPLHLAANEGHLEIVEVLLKAGADVNAQDIFGKTPADIAADAGHEDIAEVLQKAA
Kd [7]: < 100 nM
Kd (mouse serum albumin): < 100 nM
Kd (human serum albumin [8]): < 100 nM

B4: Protein #13-His (designed binder)
chain: MRGSHHHHHHGSDLGKKLLEAARAGQDDEVRELLKAGADVNAKDYFSHTPLHLAARNGHLKIVEVLLKAGADVNAKDFAGKTPLHLAANDGHLEIVEVLLKAGADVNAQDIFGKTPADIAADAGHEDIAEVLQKAA
Kd [7]: < 100 nM
Kd (mouse serum albumin): < 100 nM
Kd (human serum albumin [8]): < 100 nM

B5: Protein #17-His (designed binder)
chain: MRGSHHHHHHGSDLGKKLLEAARAGQDDEVRELLKAGADVNAKDEYGLTPLYLATAHGHLEIVEVLLKAGADVNAVDAIGFTPLHLAAFIGHLEIAEVLLKAGADVNAQDKFGKTPADIAAGAGNEDIAEVLQKAA
Kd (human HER2 [1]): 0.152 nM

B6: Protein #23-His (designed binder)
chain: MRGSHHHHHHGSDLGKKLLEAARAGQDDEVRELLKAGADVNAKDYFSHTPLHLAARNGHLKIVEVLLKAGADVNAKDFAGKTPLHLAANEGHLEIVEVLLKAGADVNAQDIFGKTPADIAADAGHEDIAEVLQKAAGSPTPTPTTPTPTPTTPTPTPTGSDLGVKLLWAAARGQDDEVRELLKAGADVNAKDFQGITPLHIAATNGHLEIVEVLLKAGADVNAKDITGETPLHHAADSGHLEIVEVLLKAGADVNAQDKAGVTPADLAAAWGHEDIAEVLQKAAGSPTPTPTTPTPTPTTPTPTPTGSDLGKKLLEAARAGQDDEVRELLKAGADVNAKDEYGLTPLYLATAHGHLEIVEVLLKAGADVNAVDAIGFTPLHLAAFIGHLEIAEVLLKAGADVNAQDKFGKTPADIAAGAGNEDIAEVLQKAAGSPTPTPTTPTPTPTTPTPTPTGSDLGKKLLEAARAGQDDEVRELLKAGADVNAKDYFSHTPLHLAARNGHLKIVEVLLKAGADVNAKDFAGKTPLHLAANEGHLEIVEVLLKAGADVNAQDIFGKTPADIAADAGHEDIAEVLQKAA
Kd (human HER2 [9]): 0.064 nM
IC50, inhibition of BT474 cell proliferation (BrdU) (HER2 on BT474 cells [5]): 2.4 nM

B7: Protein #21-His (designed binder)
chain: MRGSHHHHHHGSDLGKKLLEAARAGQDDEVRELLKAGADVNAKDYFSHTPLHLAARNGHLKIVEVLLKAGADVNAKDFAGKTPLHLAANEGHLEIVEVLLKAGADVNAQDIFGKTPADIAADAGHEDIAEVLQKAAGSPTPTPTTPTPTPTTPTPTPTGSDLGIKLLFAAAKGQDDEVRELLKAGADVNAKDFQGVTPLHIAAQSGHLEIVEVLLKAGADVNAKDVTGDTPLHLAAQHGHLEIVEVLLKAGADVNAQDERGWTPADLAADWGHEDIAEVLQKAAGSPTPTPTTPTPTPTTPTPTPTGSDLGKKLLEAARAGQDDEVRELLKAGADVNAKDEYGLTPLYLATAHGHLEIVEVLLKAGADVNAVDAIGFTPLHLAAFIGHLEIAEVLLKAGADVNAQDKFGKTPADIAAGAGNEDIAEVLQKAAGSPTPTPTTPTPTPTTPTPTPTGSDLGKKLLEAARAGQDDEVRELLKAGADVNAKDYFSHTPLHLAARNGHLKIVEVLLKAGADVNAKDFAGKTPLHLAANEGHLEIVEVLLKAGADVNAQDIFGKTPADIAADAGHEDIAEVLQKAA
notes: also called Protein #31-His
Kd (human HER2 [10]): 0.027 nM
IC50, inhibition of BT474 cell proliferation (BrdU) (HER2 on BT474 cells [5]): 1.5 nM
